Experimental data taken from US20170299608A1 (NGM BIOPHARMACEUTICALS, published 2017).
Blank lines part the entries; values can stand above or below the binder they belong to.

Legend:
[1] = molecular target: T1, mouse GFRAL, expressed on HEK293T cells (mouse, UniProt Q6SJE0 20-393); experiment: cell-based or functional assay
T1 sequence: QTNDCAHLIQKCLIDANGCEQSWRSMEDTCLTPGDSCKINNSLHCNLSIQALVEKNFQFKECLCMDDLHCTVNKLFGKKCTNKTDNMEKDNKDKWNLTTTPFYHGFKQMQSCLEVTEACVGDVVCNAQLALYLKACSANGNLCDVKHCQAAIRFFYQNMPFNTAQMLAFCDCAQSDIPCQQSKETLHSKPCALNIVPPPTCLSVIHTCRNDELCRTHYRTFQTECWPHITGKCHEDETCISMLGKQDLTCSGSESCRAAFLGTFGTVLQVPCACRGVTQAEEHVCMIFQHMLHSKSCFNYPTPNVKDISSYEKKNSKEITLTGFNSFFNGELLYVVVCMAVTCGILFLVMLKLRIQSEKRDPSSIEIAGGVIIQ

[2] = molecular target: T2, rat GFRAL, expressed on HEK293T cells (rat, UniProt D3ZB94 20-394); experiment: cell-based or functional assay
T2 sequence: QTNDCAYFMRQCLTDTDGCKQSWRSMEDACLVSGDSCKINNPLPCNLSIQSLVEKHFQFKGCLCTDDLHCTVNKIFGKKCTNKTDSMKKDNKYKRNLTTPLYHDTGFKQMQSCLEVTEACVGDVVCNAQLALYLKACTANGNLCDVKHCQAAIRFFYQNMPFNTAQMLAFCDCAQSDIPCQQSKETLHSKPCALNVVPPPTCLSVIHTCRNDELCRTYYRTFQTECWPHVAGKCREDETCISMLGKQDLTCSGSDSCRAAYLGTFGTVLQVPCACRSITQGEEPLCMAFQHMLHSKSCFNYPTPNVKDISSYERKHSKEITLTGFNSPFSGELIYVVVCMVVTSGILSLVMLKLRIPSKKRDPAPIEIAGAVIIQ

[3] = molecular target: T3, cynomolgus monkey GFRAL, expressed on HEK293T cells (cynomolgus monkey, UniProt Q6UXV0 19-394 (human entry)); experiment: cell-based or functional assay
T3 chain: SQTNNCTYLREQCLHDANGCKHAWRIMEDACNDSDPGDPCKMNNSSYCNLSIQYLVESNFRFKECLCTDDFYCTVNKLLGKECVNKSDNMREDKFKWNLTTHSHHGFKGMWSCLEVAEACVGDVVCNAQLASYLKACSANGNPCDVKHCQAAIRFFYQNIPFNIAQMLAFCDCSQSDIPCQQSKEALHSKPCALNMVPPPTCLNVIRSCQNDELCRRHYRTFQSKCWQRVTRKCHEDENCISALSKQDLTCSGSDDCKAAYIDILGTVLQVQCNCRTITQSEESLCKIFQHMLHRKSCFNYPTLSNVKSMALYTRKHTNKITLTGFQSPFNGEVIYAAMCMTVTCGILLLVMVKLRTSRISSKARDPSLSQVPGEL

[4] = molecular target: T4, human GFRAL, full length, expressed on HEK293 / HEK293T cells (human, UniProt Q6UXV0 20-394); experiment: cell-based or functional assay
T4 sequence: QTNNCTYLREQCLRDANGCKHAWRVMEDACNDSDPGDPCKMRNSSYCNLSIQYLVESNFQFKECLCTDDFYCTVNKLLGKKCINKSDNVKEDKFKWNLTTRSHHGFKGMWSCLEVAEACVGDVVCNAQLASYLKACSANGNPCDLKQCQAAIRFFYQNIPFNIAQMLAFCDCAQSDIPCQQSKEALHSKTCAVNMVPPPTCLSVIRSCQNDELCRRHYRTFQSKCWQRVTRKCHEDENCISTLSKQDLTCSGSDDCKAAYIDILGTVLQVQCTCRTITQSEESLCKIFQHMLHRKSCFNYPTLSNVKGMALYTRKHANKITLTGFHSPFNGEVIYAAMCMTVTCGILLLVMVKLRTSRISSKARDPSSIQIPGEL

[5] = molecular target: T4, human GFRAL, full length, expressed on …; experiment: radio-ligand competition: unlabeled GDF15 displacing 0.15 nM ^125I-GDF15 from HEK293-GFRAL cells
Experimental: HEK293-GFRAL cells were suspended in ice-cold binding buffer (Dulbecco's modified Eagle's medium containing 2 mg/ml BSA, and 25 mM HEPES, pH 7.4) and transferred to pre-wetted Multiscreen filter plates (96-well Dura PVDF 0.65 um Opaque; Millipore), which were kept on ice. Typically, 1×10⁵ of cells in 25 μl were used per well. […] Plates were then transferred to a vacuum filtration manifold (Pall Corporation) and supernatants were filtered. Each well was washed four times with 100 μl of ice cold binding buffer. Bound ¹²⁵I-GDF15 (CPM) were measured by scintillation counting (150 μl/well of EcoLite, MP Biomedicals, Santa Anna, Calif.) using MicroBeta2 Plate Counter (Perkin Elmer). The concentrations (in nM) of unlabeled inhibitors used in this experiment are as follows. GDF15 and GFRAL-Fc: 100, 25, 6.25, 1.56, 0.39, 0.098, 0.024, 0.006; 1M03: 1000, 250, 62.5, 15.63, 3.91, 0.98, 0.24, 0.06.

[6] = molecular target: T4, human GFRAL, full length, expressed on …; experiment: radioligand saturation binding to HEK293 cells expressing human GFRAL, equilibrium, 2 hr at 4 °C
Experimental: HEK293 or HEK293-human GFRAL cells were suspended in ice-cold binding buffer (Dulbecco's modified Eagle's medium containing 2 mg/ml BSA, and 25 mM HEPES, pH 7.4) and transferred to pre-wetted Multiscreen filter plates (96-well Dura PVDF 0.65 um Opaque; Millipore), which were kept on ice. Typically, 1×10⁵ of cells in 25 μl were used per well. Cells were incubated with 25 μl of binding buffer containing serial dilution of ¹²⁵I-GDF15 (2 fold serial dilution from 1000 pM to 0.1 pM final reaction concentration) with or without unlabeled GDF15 (500 nM final reaction concentration) for 2 hr at 4° C. Plates were then transferred to a vacuum filtration manifold (Pall Corporation) and supernatants were filtered. Each well was washed four times with 100 μl of ice cold binding buffer. Bound ¹²⁵I-GDF15 were measured by scintillation counting (150 μl/well of EcoLite, MP Biomedicals, Santa Anna, Calif.) using MicroBeta2 Plate Counter (Perkin Elmer). Bound (molecule/cell) was calculated according to a standard curve correlating CPM and molarity of ¹²⁵I-GDF15.
To determine the binding affinity of GDF15 to GFRAL, radio-labeled ¹²⁵I-GDF15 was used to bind HEK293 cells expressing human GFRAL (FIG. 2A) under equilibrium conditions. […] Excess amount of unlabeled GDF15 (500 nM) reduced the ¹²⁵I-GDF15-GFRAL binding to ‘non-specific’ background level. […]

EC50 of Elk/GAL4-luciferase reporter in HEK293T cells co-transfected with mouse GFRAL and RET9 [1]: 1.5 pM
EC50 of Elk/GAL4-luciferase reporter in HEK293T cells co-transfected with rat GFRAL and RET9 [2]: 6.2 pM
EC50 of Elk/GAL4-luciferase reporter in HEK293T cells co-transfected with cynomolgus monkey GFRAL and RET9 [3]: 5.2 pM
EC50 of Elk/GAL4-luciferase reporter in HEK293T cells co-transfected with human GFRAL and human RET9 [4]: 2.1 pM
IC50 [5]: 400 pM
B1: mature human GDF15 (112 amino acids) (ligand)
chain: ARNGDHCPLGPGRCCRLHTVRASLEDLGWADWVLSPREVQVTMCIGACPSQFRAANMHAQIKTSLHRLKPDTVPAPCCVPASYNPMVLIQKTDTGVSLQTYDDLLAKDCHCI
notes: also called hGDF15; unlabeled GDF15

Kd [6]: ~200 pM
B2: ^125I-GDF15 (radio-iodinated mature human GDF15) (ligand)
chain: B1 chain
modifications: 125I label, site not stated
notes: Labelled form of m1; also called radio-labeled GDF15
